For test [1], the target named is T1, PAC1-R on PAC1-R-expressing PC-12 cells (UniProt P32215 20-523).
T1 construct: whole, on cells; also called PAC1 receptor
T1 sequence (looked up): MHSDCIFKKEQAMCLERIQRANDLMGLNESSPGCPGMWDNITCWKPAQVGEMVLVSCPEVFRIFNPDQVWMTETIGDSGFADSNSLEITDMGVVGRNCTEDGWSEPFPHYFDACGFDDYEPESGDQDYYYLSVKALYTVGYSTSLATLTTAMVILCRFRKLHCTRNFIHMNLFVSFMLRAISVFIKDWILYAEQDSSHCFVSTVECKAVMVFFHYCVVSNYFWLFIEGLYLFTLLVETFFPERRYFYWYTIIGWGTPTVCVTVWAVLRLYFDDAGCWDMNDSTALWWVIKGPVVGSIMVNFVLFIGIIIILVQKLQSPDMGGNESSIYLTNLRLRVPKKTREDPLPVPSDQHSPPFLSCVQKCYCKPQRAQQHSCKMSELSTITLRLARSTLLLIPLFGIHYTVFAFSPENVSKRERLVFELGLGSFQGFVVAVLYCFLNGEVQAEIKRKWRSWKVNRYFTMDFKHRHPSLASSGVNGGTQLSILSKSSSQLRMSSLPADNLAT
The experiment in a line: cell surface binding assay (DELFIA TRF): antibody pre-incubated with PACAP38, added to PAC1-R-expressing PC-12 cells, detected with Eu anti-human IgG.

Test [2] deals with T2, PACAP38 (Pituitary Adenylate Cyclase-Activating Polypeptide, 38 amino acids) (human, not fully specified; the C-terminal lysine is amidated).
T2 construct: In the HTRF and PC-12 cell assays the peptide was N-terminally or C-terminally biotinylated; unlabelled in SPR; also called human PACAP38; huPACAP (1-38)
T2 peptide: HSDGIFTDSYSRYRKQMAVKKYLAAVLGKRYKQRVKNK
The experiment in a line: SPR (ProteOn XPR36), antibody amine-coupled, peptide analyte, 1:1 Langmuir fit. The essentials:
(§1)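 Antibody amine-coupled to GLC or GLM chips; peptide antigen injected at 1.23 nM to 100 nM, association 2-4 min, dissociation 3-120 min. Sensorgrams fitted to a 1:1 Langmuir model; surfaces regenerated with 0.85% phosphoric acid between analytes.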

The target in test [3] is T3, PACAP27 (Pituitary Adenylate Cyclase-Activating Polypeptide, 27 amino acids) (human, the C-terminal leucine is amidated).
T3 construct: also called human PACAP27
T3 peptide: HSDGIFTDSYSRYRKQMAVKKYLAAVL
The description is as above. The essentials:
as §1

Test [4] concerns the target T2, PACAP38 (Pituitary Adenylate …). Put plainly: cell-based or functional assay.
Test [5] addresses T3, PACAP27 (Pituitary Adenylate …). The experiment in a line: cell-based or functional assay.
For test [6], the target named is T2, PACAP38 (Pituitary Adenylate …). The experiment in a line: cell-based or functional assay.
For test [7] the target is unchanged. Put plainly: cell-based or functional assay.

B1: Ab10 (antibody, human IgG1, kappa, N297A, V domains shown)
VH: QSVEESGGRLVTPGTPLTLTCTVSGIDLNSYYMTWVRQAPGKGLEWIGFIDAGGDAYYASWAKGRFTISKTSTTVDLKITSPTTEDTATYFCARDLDLWGQGTLVTVSS
VL: AAVLTQTPSPVSAAVGGTVTINCQSSESVYGNYLAWFQQKPGQPPKLLIYEASKLESGVPSRFSGSGSGTQFTLTISDLQCDDAATYYCAGGDISEGVAFGGGTEVVVKR
notes: Full-length anti-PACAP antibody; rabbit variable regions cloned onto human constant regions (rabbit/human chimeric), expressed in HEK-293
For orientation: Kd means a measure of binding affinity in units of concentration. Lower therefore signals higher affinity. What is called koff is the rate constant with which the complex falls apart. A high value points to fast dissociation. Usually kon stands for the second-order rate constant of association. Low readings indicate slower complex formation, high ones faster complex formation. With B1, the binding result in test [1] is recorded as “no binding (tested: about 5000 nM)”. In test [2], this molecule came in with an equilibrium dissociation constant (Kd) of 75 pM, a koff of 2e-05 s⁻¹ and a kon of 260000 M⁻¹ s⁻¹. Also, in test [3], the Kd was no more than 10 pM, the off-rate (koff) is no more than 1e-05 s⁻¹ and the kon was found to be 1e+06 M⁻¹ s⁻¹. Further, the “Inhibition of 0.1 nM PACAP38-induced PAC1-R mediated cAMP increase IC50 (pM)” value in test [4] worked out at 180 pM. Also, the “Inhibition of 0.1 nM PACAP27-induced PAC1-R mediated cAMP increase IC50 (pM)” value in test [5] came out at 227 pM. Also, in test [6], the “Inhibition of 5 nM PACAP38-induced human VPAC1-R mediated cAMP increase IC50 (pM)” value worked out at 649 pM. For the same molecule, in test [7], the “Inhibition of 1 nM PACAP38-induced human VPAC2-R mediated cAMP increase IC50 (pM)” value was 188 pM.

B2: Ab20 (antibody, human IgG1, kappa, N297A, V domains shown)
VH: QSVEESGGRLVTPGTPLTLTCTVSGIDLSSYYMSWVRQAPGKGLEWIGFIDTDGSAYYATWAKGRFTISKTSTTVDLKITSPTTEDTATYFCARDLDLWGPGTLVTVSS
VL: AAVLTQTPSPVSAAVGGTVSISCQSSESVYSNYLAWFQQKPGQPPKFLIYEASKLASGVPSRFKGSGSGTQFTLTISDVQCDDAGTYYCAGGYSSEGVAFGGGTEVVVKR
notes: Full-length anti-PACAP antibody; rabbit/human chimeric
In the case of B2, the binding result in test [1] was “no binding (tested: about 500 nM)”. Besides, in test [2], the Kd is 210 pM, the koff is 2.4e-05 s⁻¹ and the kon amounted to 120000 M⁻¹ s⁻¹. In test [3], this molecule registered a Kd of 70 pM, a koff of 2.2e-05 s⁻¹ and a kon of 320000 M⁻¹ s⁻¹. Moreover, the “Inhibition of 0.1 nM PACAP38-induced PAC1-R mediated cAMP increase IC50 (pM)” value in test [4] stood at 368 pM. Besides, in test [5], the “Inhibition of 0.1 nM PACAP27-induced PAC1-R mediated cAMP increase IC50 (pM)” value was 188 pM. Also, the “Inhibition of 5 nM PACAP38-induced human VPAC1-R mediated cAMP increase IC50 (pM)” value in test [6] came out at 3890 pM. In test [7], the “Inhibition of 1 nM PACAP38-induced human VPAC2-R mediated cAMP increase IC50 (pM)” value was determined as 14600 pM.

B3: Ab10.H (antibody, human IgG1, kappa, N297A)
heavy: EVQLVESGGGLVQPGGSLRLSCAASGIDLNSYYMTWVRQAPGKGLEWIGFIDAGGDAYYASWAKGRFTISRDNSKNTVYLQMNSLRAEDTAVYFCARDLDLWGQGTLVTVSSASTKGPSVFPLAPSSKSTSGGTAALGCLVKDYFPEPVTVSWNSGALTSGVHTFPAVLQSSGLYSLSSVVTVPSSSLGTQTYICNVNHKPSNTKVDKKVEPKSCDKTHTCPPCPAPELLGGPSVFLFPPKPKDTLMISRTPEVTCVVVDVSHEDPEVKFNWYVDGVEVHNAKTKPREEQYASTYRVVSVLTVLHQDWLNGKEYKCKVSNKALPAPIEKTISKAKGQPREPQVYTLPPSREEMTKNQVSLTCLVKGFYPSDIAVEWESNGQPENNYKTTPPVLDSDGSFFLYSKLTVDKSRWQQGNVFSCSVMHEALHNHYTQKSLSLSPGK
light: DAQLTQSPSTLSASVGDRVTITCQSSESVYGNYLAWFQQKPGKAPKFLIYEASKLESGVPSRFSGSGSGTEFTLTISSLQPDDFATYYCAGGDISEGVAFGGGTKVEIKRTVAAPSVFIFPPSDEQLKSGTASVVCLLNNFYPREAKVQWKVDNALQSGNSQESVTEQDSKDSTYSLSSTLTLSKADYEKHKVYACEVTHQGLSSPVTKSFNRGEC
notes: Full-length humanized variant of Ab10
For the molecule B3, the binding result in test [1] was “no binding (tested: about 70 nM)”. In test [2], this molecule gave a Kd of no more than 29 pM, a koff of no more than 1e-05 s⁻¹ and a kon of 340000 M⁻¹ s⁻¹. In test [3], the Kd worked out at 33 pM, the off-rate constant (koff) is 1.8e-05 s⁻¹ and the association rate constant (kon) turned out to be 530000 M⁻¹ s⁻¹. In addition, in test [4], the “Inhibition of 0.1 nM PACAP38-induced PAC1-R mediated cAMP increase IC50 (pM)” value is 163 pM. Further, the “Inhibition of 0.1 nM PACAP27-induced PAC1-R mediated cAMP increase IC50 (pM)” value in test [5] was 84 pM. Further, in test [6], the “Inhibition of 5 nM PACAP38-induced human VPAC1-R mediated cAMP increase IC50 (pM)” value came to 1340 pM. The “Inhibition of 1 nM PACAP38-induced human VPAC2-R mediated cAMP increase IC50 (pM)” value in test [7] came to 988 pM.

The values above are taken from US20250009876A1 (H LUNDBECK A S, published 2025).
